The record followed here is PMC5102582 (eLife, 2016).

Data set [1] deals with the molecule itself. The data set can be described thus: SEC; HiLoad 16/60 Superdex 200 gel filtration column, during purification of full-length p47. Background: SEC sorts molecules by how far they enter the pores of the column.
In a further data set the target is T1, R95G ND1Lp97-ADP (Homo sapiens/Mus musculus (identical), UniProt P55072 1-480, R95G).
T1 construct: p97/VCP, Homo sapiens/Mus musculus (identical), residues 1-480, IBMPFD disease mutation R95G; deuterated, ILVM-13CH3 labelled; mutation found in IBMPFD patients; also called R95G mutant; not shown: His6, N-terminal, cleaved
The data set can be described thus: NMR titration; one point: 150 µM UBXD1-N added to 50 µM (monomer) wt or mutant ND1Lp97-ADP (3:1); methyl-TROSY HMQC CSPs; Kd from the bound fraction by the V68 shift; 50°C; 25 mM HEPES pH 7.0, 50 mM NaCl, 10 mM ADP, 5 mM TCEP, D2O. As to conditions: both partners purified.

The next data set addresses T2, R155H ND1Lp97-ADP (Homo sapiens/Mus musculus (identical), UniProt P55072 1-480, R155H).
T2 construct: p97/VCP, Homo sapiens/Mus musculus (identical), residues 1-480, IBMPFD disease mutation R155H; deuterated, ILVM-13CH3 labelled; mutation found in IBMPFD patients; not shown: His6, N-terminal, cleaved
The description is as above. The conditions noted are these: both partners purified.

Another data set has as its target T3, R155P ND1Lp97-ADP (Homo sapiens/Mus musculus (identical), UniProt P55072 1-480, R155P).
T3 construct: p97/VCP, Homo sapiens/Mus musculus (identical), residues 1-480, IBMPFD disease mutation R155P; deuterated, ILVM-13CH3 labelled; mutation found in IBMPFD patients; not shown: His6, N-terminal, cleaved
The data set is described as above. As to conditions: both partners purified.

The target in another data set is T4, N387H ND1Lp97-ADP (Homo sapiens/Mus musculus (identical), UniProt P55072 1-480, N387H).
T4 construct: p97/VCP, Homo sapiens/Mus musculus (identical), residues 1-480, IBMPFD disease mutation N387H; deuterated, ILVM-13CH3 labelled; mutation found in IBMPFD patients; not shown: His6, N-terminal, cleaved
The data set is described as above. As to conditions: both partners purified.

In data set [2] the target is T5, wt ND1Lp97-ADP (p97/VCP residues 1-480: NTD, D1 and the D1-D2 linker) (Homo sapiens/Mus musculus (identical), UniProt P55072 1-480).
T5 construct: p97/VCP, Homo sapiens/Mus musculus (identical), UniProt P55072 versus Q01853, residues 1-480; highly deuterated, ILVM-13CH3 methyl labelled; 320 kDa hexamer (6 x 53 kDa); also called p97 ND1L 1-480; NDL1p97-ADP; not shown: His6, N-terminal, cleaved
The data set can be described thus: NMR titration; methyl-TROSY 13C-1H HMQC chemical shift titration of ILVM-13CH3 wt ND1Lp97-ADP with perdeuterated UBXD1-N; global analysis of V68, L140, I175, I182; effective macroscopic Kd; 50°C; 25 mM HEPES pH 7.0, 50 mM NaCl, 10 mM ADP, 5 mM TCEP, D2O; a new sample for each ligand concentration. As to conditions: both partners purified.

T1 sequence (P55072 1-480 R95G): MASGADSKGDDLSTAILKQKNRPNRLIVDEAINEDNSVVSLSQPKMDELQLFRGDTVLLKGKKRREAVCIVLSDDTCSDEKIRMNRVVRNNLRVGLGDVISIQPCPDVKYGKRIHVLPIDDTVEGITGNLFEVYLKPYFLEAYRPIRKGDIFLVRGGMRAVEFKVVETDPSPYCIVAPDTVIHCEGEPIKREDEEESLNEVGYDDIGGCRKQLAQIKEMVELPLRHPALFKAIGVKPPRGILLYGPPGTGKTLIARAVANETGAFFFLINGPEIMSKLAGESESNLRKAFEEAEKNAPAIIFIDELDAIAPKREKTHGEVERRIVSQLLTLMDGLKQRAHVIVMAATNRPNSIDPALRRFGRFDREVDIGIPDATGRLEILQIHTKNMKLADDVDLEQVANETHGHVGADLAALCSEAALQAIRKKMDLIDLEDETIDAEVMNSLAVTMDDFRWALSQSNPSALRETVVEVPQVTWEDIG
T2 sequence (P55072 1-480 R155H): as the sequence (P55072 1-480 R95G) above, with G95R, R155H counted along it
T4 sequence (P55072 1-480 N387H): as the sequence (P55072 1-480 R95G) above, with G95R, N387H counted along it
T3 sequence (P55072 1-480 R155P): as the sequence (P55072 1-480 R95G) above, with G95R, R155P counted along it
T5 sequence (P55072 1-480): as the sequence (P55072 1-480 R95G) above, with G95R counted along it

B1: full-length p47 (natural protein, Mus musculus, UniProt Q9CZ44 1-370, looked up)
chain: MAEERQDALREFVAVTGTEEDRARFFLESAGWDLQIALASFYEDGGDEDIVTISQATPSSVSRGTAPSDNRVTSFRDLIHDQDEEEEEEEGQRFYAGGSERSGQQIVGPPRKKSPNELVDDLFKGAKEHGAVAVERVTKSPGETSKPRPFAGGGYRLGAAPEEESAYVAGERRRHSGQDVHVVLKLWKTGFSLDNGDLRSYQDPSNAQFLESIRRGEVPAELRRLAHGGQVNLDMEDHRDEDFVKPKGAFKAFTGEGQKLGSTAPQVLNTSSPAQQAENEAKASSSILINEAEPTTNIQIRLADGGRLVQKFNHSHRISDIRLFIVDARPAMAATSFVLMTTFPNKELADENQTLKEANLLNAVIVQRLT
notes: p47 (NSFL1 cofactor p47), Mus musculus, full length; perdeuterated; eluted as a trimer on gel filtration; also called p47 trimer; not shown: His6, N-terminal, cleaved
The term stoichiometry N denotes the number of molecules, sites or subunits per partner or assembly. With B1, the “stoichiometry N” value in data set [1] was 3.

B2: UBXD1-N (N-terminal portion of UBXD1, residues 1-133) (domain or fragment, Mus musculus, UniProt Q99PL6 1-133, looked up)
chain: MKKFFQEIKADIKFKSAGPGQKLTDSAGEKTTKGKSPQLALRQPRQGPTDEAQMAAAAALARLEQKQPRARGPTSQDSIRNQVRKELQAEATSSNNPGAPGTNSVPEPKEEISPHLAVPGVFFICPLTGVTLR
notes: UBXD1, Mus musculus, residues 1-133 (holds H1/H2 and VIM, residues 52-63); perdeuterated; construct after Trusch et al., 2015; not shown: His6, N-terminal, cleaved
As usually defined, the Kd is a measure of binding affinity in units of concentration. On to B2, for which the Kd was roughly 200 µM with R95G ND1Lp97-ADP; roughly 80 µM with R155H ND1Lp97-ADP; roughly 200 µM with R155P ND1Lp97-ADP; roughly 80 µM with N387H ND1Lp97-ADP; 22 ± 2 µM in data set [2].
